This is an account of results in patent publication US20260008865A1.

For assay [1], the target named is SelSP1 (PSGL-1 sulfopeptide). Put plainly: SPR; SelSP1 surface (FC2) blocked with 40 µg/mL antibody, then 990 nM CCL27 as competitor; Rep. 3.
The target of assay [2] is SelSP1 (PSGL-1 sulfopeptide). Put plainly: SPR; SelSP1 surface blocked with 40 µg/mL antibody, then 990 nM CCL27 as competitor; average over FC2 and FC3 replicates. On the technique in general: SPR reads the build-up and loss of mass on a sensor chip optically.
Assay [3] has as its target SelSP1 (PSGL-1 sulfopeptide). Put plainly: SPR; SelSP1 surface (FC2) blocked with 40 µg/mL antibody, then 990 nM CCL27 as competitor; Rep. 2.
Assay [4] addresses SelSP1 (PSGL-1 sulfopeptide). Put plainly: SPR; SelSP1 surface (FC3) blocked with 40 µg/mL antibody, then 990 nM CCL27 as competitor; Rep. 2.
Assay [5] addresses SelSP1 (PSGL-1 sulfopeptide). As to the kind of experiment: SPR; SelSP1 surface (FC3) blocked with 40 µg/mL antibody, then 990 nM CCL27 as competitor; Rep. 1.
The target of assay [6] is SelSP1 (PSGL-1 sulfopeptide). Put plainly: SPR; SelSP1 surface (FC2) blocked with 40 µg/mL antibody, then 990 nM CCL27 as competitor; Rep. 1.
Assay [7] addresses SelSP1 (PSGL-1 sulfopeptide). As to the kind of experiment: SPR; summary sentence in the description; target printed as PSGL-1, but the worked example used the PSGL-1 sulfopeptide SelSP1.
Assay [8] concerns the target SelSP1 (PSGL-1 sulfopeptide). As to the kind of experiment: SPR (SensiQ Pioneer), antibody captured on Protein G, SelSP1 as analyte, 25 °C, 1:1 model.
Assay [9] deals with SelSP1 (PSGL-1 sulfopeptide). Put plainly: SPR; SelSP1 surface (FC3) blocked with 40 µg/mL antibody, then 990 nM CCL27 as competitor; Rep. 3.

In general, Kd refers to the equilibrium constant for the complex coming apart. By koff is commonly meant a measure of how fast the partners let go of each other. The kon is the rate constant with which the complex forms.

B1: Parental antibody (antibody, V domains shown)
VH: DVQLVESGGGLVQPGGSRKLSCAASGFTFSSFGMHWVRQAPEKGLEWVAYISSASSTIYYADTVKGRFTISRDNPKNTLFLQMTSLRSEDTAMYYCASSYGYWGQGTTLTVSS
VL: DVVMTQTPLSLPVSLGDQASISCRSSRSLVHSNGNTYLHWYLQKPGQSPQLLIYKVSNRFSGVPDRFSGSGSGTDFTLKISRVEAEDLGVYFCSQTTHVPLTFGAGTRLELKR
On to B1, for which the Percent CCL27 Inhibition in assay [1] turned out to be 53.5%; in assay [3] it was 50.6%; in [4], 43.1%; in assay [5], 50.5%; in assay [6] it was 57.1%; in assay [9] it was 47%. Further, in assay [2], the Percent CCL27 Inhibition (Avg.) was 50%. Further, the Kd turned out to be 16.6 nM in assay [7] and 16.4 nM in [8]. The same molecule gave a koff in [8] of 0.00497 s⁻¹. This molecule also gave a kon in [8] of 303000 M⁻¹ s⁻¹.
